Measured values reported in the supplement of paper PMC7125110.
± gives the standard error. Variants at the floor of the assay were thinned out.

B1: glmS ribozyme (parent)
chain: AUAAAAGCGCCAGAACUACAGAAAUGUAGUUGACGAGGAGGAGGUUUAUCGAAUUUUCGGCGGAUGCCUCCAAA

Variants of: B1
Assay: self-cleavage kobs at 2500 uM GlcN6P; higher = faster cleavage; RNA array
Conditions: with glucosamine-6-phosphate
In short: (§1)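 Glucosamine-6-phosphate, from 40 μM to 10 mM in HEPES/KCl/Mg(OAc)2 buffer, was flowed over sequenced MiSeq chips carrying barcoded ribozyme variants transcribed in situ by E. coli RNA polymerase. A hybridised Cy3 probe tracked the variants at 37 °C as tiles were imaged over ~14 h. kobs, kcat and KM were obtained by fitting normalised per-tile medians to exponential decays and then applying weighted Michaelis–Menten fits across concentrations.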

Row | Variant | self-cleavage kobs at 2500 uM GlcN6P [s⁻¹]
1 | AUAAAAGCGCCAGAACUACAGAAAUGUAGAUGACGAGAGGGAGGUUUAUCGAAUUUUAGGCGCAUGCCUCAAAA | < 1e-05
2 | AUAAAAGCGCCAGAACUACAGAAAUGUAGAUCAGGAGGAGGAGGUUUAUCGAAUAUUCGGCGGAUGCCUCCAAA | < 1e-05
3 | AUAAAAGCGCCAGAACUACAGAAAUGUAGUAGACGUGGAGGAGGUUUAUCGAAUUUUCAGCGGAUGCCUCCAAA | < 1e-05
4 | AUAAAAGCGCCAGAACUACAGAAAUGUAGAUGACGAGGGGGAGGUUUAUCGAAUUUUCGGCGGAUGCCUUCAAA | 0.00333 ± 0.00077
5 | AUAAAAGCGCCAGAACUACAGAAAUGUAGCUGACGAGGAGGAGGUUUAUCGAAUUUUGGGCGGAUGCUUCCAAA | 0.000104 ± 2.9e-05
6 | AUAAAAGCGCCAGAACUACAGAAAUGUAGGUGACGAGGAGGAGGUUUAUCGAAUUUACGGCGGAUGCCUCCAAA | 4.22e-05 ± 1.5e-05
7 | AUAAAAGCGCCAGAACUACAGAAAUGUAUUUUACGAGGAGGAGGUUUAUGGAAUUUUCGGCGGAUGCCUCCAAA | 6.06e-05 ± 2.9e-05
8 | AUAAAAGCGCCAGAACUACAGAAAUGUAGCUGACGAGGAGGAGGUUUAUCGAAUUUUCGGCGGAGGGCUCCAAA | 0.000128 ± 3.3e-05
9 | AUAAAAGCGCCAGAACUACAGAAAUGUAGAUGACGAGGAGGAGGUGUAUCGAAUUUUCGGCGGAUGCGUCCAAA | 0.000143 ± 6.7e-05
10 | AUAAAAGCGCCAGAACUACAGAAAUGUAGGUUACGAGGAGGAGGUUUAUCGAAUUUUCGGCGGAUGCCUCCAAA | 0.000223 ± 6.5e-05
11 | AUAAAAGCGCCAGAACUACAGAAAUGUAGUCGAAGACGAGGAGGUUUAUCGAAUUUUCGGCGGAUGCCUCCAAA | < 1e-05
12 | AUAAAAGCGCCAGAACUACAGAAAUGUAGUCGACAAGGAGGAGGUUUCUCGAAUUUUCGGCGGAUGCCUCCAAA | < 1e-05
13 | AUAAAAGCGCCAGAACUACAGAAAUGUAGUCGACGAGUAGGAGGUUUAUCGAAUUUUCGGCGGAUUCCUCCAAA | < 1e-05
14 | AUAAAAGCGCCAGAACUACAGAAAUGUAGUCGACAAGGAGGAGGUUUAUCGAAUUUUCGGCGGAUUCCUCAAAA | < 1e-05
15 | AUAAAAGCGCCAGAACUACAGAAAUGUAUUUGACGAGGAGGAGGUUUAUCGAAUUAUCGGCGGAUGCUUCCAAA | 0.000413 ± 6.5e-05
16 | AUAAAAGCGCCAGAACUACAGAAAUGUAGUCGACGAGAAAGAGGUUUAUCGAAUUUUCGGCGGAUGCCUCCAAA | < 1e-05

Row | Variant | self-cleavage kobs at 2500 uM GlcN6P [s⁻¹]
17 | AUAAAAGCGCCAGAACUACAGAAAUGUAGUAGAGGAGGAGGAGGUUUGUCGAAUUUUCGGCGGAUGCCUCCAAA | < 1e-05
18 | AUAAAAGCGCCAGAACUACAGAAAUGUAGUCGACGAGGAGGAGGUUUAUCGACUCUUCGGCGGAUGCCUCCAAA | 0.000164 ± 5e-05
19 | AUAAAAGCGCCAGAACUACAGAAAUGUAGUCGACGAGGAGGAGGUUUAUCGAAUUUUAGGUGGUUGCCUCCAAA | < 1e-05
20 | AUAAAAGCGCCAGAACUACAGAAAUGUAGCUGACAAGGAGGAGGUUUAUCGAAUUUUCGGCGGAUGGCUCCAAA | < 1e-05
21 | AUAAAAGCGCCAGAACUACAGAAAUGUAGCUGACUAGGAGGAGGUUUAUCGAAUUUUCGGCGGACGCCUCCAAA | < 1e-05
22 | AUAAAAGCGCCAGAACUACAGAAAUGUAGUCGACGCGGAGGAGGUUUAUCGAAUUUUCGGCGUAUGCAUCCAAA | 0.000118 ± 4e-05
23 | AUAAAAGCGCCAGAACUACAGAAAUGUAGGUGAAGAGGAGGAGGUUUAUCGAAUUUUCGUCGGAUGCCUCCAAA | < 1e-05
24 | AUAAAAGCGCCAGAACUACAGAAAUGUAGUCGACGAGGAUGAGGUUUGUCGAAUUUUCGGUGGAUGCCUCCAAA | < 1e-05
25 | AUAAAAGCGCCAGAACUACAGAAAUGUAGAUGACGAGGAGUAGGUUUAUCGAAUUUUCGGCGGAUGCCUGCAAA | 0.00387 ± 0.0011
26 | AUAAAAGCGCCAGAACUACAGAAAUGUAUUUGACGAGGAGGAGGUUUAUCGAAAUUUAGGCGGAUGCCUCCAAA | 0.000128 ± 3.8e-05
27 | AUAAAAGCGCCAGAACUACAGAAAUGUAGUAGACGAGGAGGAGGUUUAUCGAAUUUUCGGCGGAUGCCUACAAA | 5.68e-05 ± 1.7e-05
28 | AUAAAAGCGCCAGAACUACAGAAAUGUAGAUCACGAGGAGGAGGUUUAUCGAAUUUUCGGCGGAUGCCUCCAAA | 6.18e-05 ± 2.8e-05
29 | AUAAAAGCGCCAGAACUACAGAAAUGUAGUAGUCGAGGAGGAGGUUUAUCGAAUUGUCGGCGGAGGCAUCCAAA | < 1e-05
30 | AUAAAAGCGCCAGAACUACAGAAAUGUAGCUGACGAGGAGGAAGUGUAUCGAAUUUUCGGCGGAUGUCUCCAAA | < 1e-05
31 | AUAAAAGCGCCAGAACUACAGAAAUGUAGGUGACGAGGAGGAGGUUUAUCGAAUUUUCGGCGGGUGGCUCCAAA | 6.44e-05 ± 3e-05

Variants of: B1
Assay: self-cleavage kobs at 10000 uM GlcN6P; higher = faster cleavage; RNA array
Conditions: with glucosamine-6-phosphate
In short: as §1

Row | Variant | self-cleavage kobs at 10000 uM GlcN6P [s⁻¹]
32 | AUAAAAGCGCCAGAACUACAGAAAUGUAGAUGACGAGAGGGAGGUUUAUCGAAUUUUAGGCGCAUGCCUCAAAA | < 1e-05
33 | AUAAAAGCGCCAGAACUACAGAAAUGUAGGUGACGAGGAGGAGGUUUAUCGAAUUUACGGCGGAUGCCUCCAAA | 8.3e-05 ± 1.8e-05
34 | AUAAAAGCGCCAGAACUACAGAAAUGUAGCUGACGAGGAGGAGGUUUAUCGAAUUUUCGGCGGAGGGCUCCAAA | 2.81e-05 ± 1.3e-05
35 | AUAAAAGCGCCAGAACUACAGAAAUGUAGGUUACGAGGAGGAGGUUUAUCGAAUUUUCGGCGGAUGCCUCCAAA | 0.000612 ± 0.00015
36 | AUAAAAGCGCCAGAACUACAGAAAUGUAGUAGACGAGGAGGAGGUUUAUCGAAUUUUCGGCGGAUGCCUACAAA | 0.000146 ± 3e-05
37 | AUAAAAGCGCCAGAACUACAGAAAUGUAGAUCACGAGGAGGAGGUUUAUCGAAUUUUCGGCGGAUGCCUCCAAA | 0.000203 ± 5.8e-05
